Consider one molecule from patent US20090138983A1 (POSTECH FOUNDATION, published 2009).

Series [1] concerns the target T1, T7-tagged AtBG1 (Arabidopsis thaliana β-glucosidase 1) (Arabidopsis thaliana, UniProt Q9SE50 27-528).
T1 construct: Co-expressed with AtBG1:HA in protoplasts; pulled down with anti-T7 antibody; also called AtBG1:T7; not shown: T7 tag
T1 sequence (looked up): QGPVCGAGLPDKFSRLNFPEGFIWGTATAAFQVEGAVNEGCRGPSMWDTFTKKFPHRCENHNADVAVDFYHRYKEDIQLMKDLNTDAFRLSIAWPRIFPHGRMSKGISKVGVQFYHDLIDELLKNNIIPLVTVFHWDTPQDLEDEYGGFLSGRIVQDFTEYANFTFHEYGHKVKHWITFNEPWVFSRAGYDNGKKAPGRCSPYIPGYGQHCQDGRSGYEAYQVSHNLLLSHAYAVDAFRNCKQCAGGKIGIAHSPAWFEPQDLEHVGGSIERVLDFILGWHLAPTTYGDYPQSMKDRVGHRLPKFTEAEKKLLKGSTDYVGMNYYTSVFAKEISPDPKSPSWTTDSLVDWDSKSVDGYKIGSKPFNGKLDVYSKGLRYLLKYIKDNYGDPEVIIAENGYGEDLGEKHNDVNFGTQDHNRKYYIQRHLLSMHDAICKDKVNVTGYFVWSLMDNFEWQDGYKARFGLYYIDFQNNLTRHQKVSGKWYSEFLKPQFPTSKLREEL
As to the kind of experiment: co-immunoprecipitation with anti-T7 antibody, anti-HA Western blot, densitometry. Here is the method: The present inventors also investigated the mechanism by which dehydration stress activates AtBG1. […] Thus, the present inventors investigated whether the mechanism by which dehydration stress activates AtBG1 is attributed to AtBG1 polymerization. Protein extracts were prepared from protoplasts co-transformed with two differently tagged forms of AtBG1, AtBG1:HA and AtBG1:T7, according to the same method as described in the above Example, and used for co-immunoprecipitation with anti-T7 antibody. Immunoprecipitates were analyzed by Western blotting using anti-HA antibody to investigate the interaction between AtBG1 molecules. As a result, HA-tagged AtBG1 was detected in the precipitate immunoprecipitated with T7-antibody (FIG. 35). Furthermore, the amount of HA-tagged AtBG1 in the precipitate was increased by approximately 3-fold upon treatment of protoplasts with 10% PEG 8000, a chemical that induces dehydration stress, for 12 hours (measured by densitometery software, FIG. 35). Therefore, the present inventors concluded that AtBG1 undergoes homomeric interactions, which are enhanced under conditions of dehydration stress.

B1: HA-tagged AtBG1 (Arabidopsis thaliana β-glucosidase 1) (enzyme, UniProt Q9SE50 27-528, looked up)
chain: QGPVCGAGLPDKFSRLNFPEGFIWGTATAAFQVEGAVNEGCRGPSMWDTFTKKFPHRCENHNADVAVDFYHRYKEDIQLMKDLNTDAFRLSIAWPRIFPHGRMSKGISKVGVQFYHDLIDELLKNNIIPLVTVFHWDTPQDLEDEYGGFLSGRIVQDFTEYANFTFHEYGHKVKHWITFNEPWVFSRAGYDNGKKAPGRCSPYIPGYGQHCQDGRSGYEAYQVSHNLLLSHAYAVDAFRNCKQCAGGKIGIAHSPAWFEPQDLEHVGGSIERVLDFILGWHLAPTTYGDYPQSMKDRVGHRLPKFTEAEKKLLKGSTDYVGMNYYTSVFAKEISPDPKSPSWTTDSLVDWDSKSVDGYKIGSKPFNGKLDVYSKGLRYLLKYIKDNYGDPEVIIAENGYGEDLGEKHNDVNFGTQDHNRKYYIQRHLLSMHDAICKDKVNVTGYFVWSLMDNFEWQDGYKARFGLYYIDFQNNLTRHQKVSGKWYSEFLKPQFPTSKLREEL
notes: Expressed in Arabidopsis protoplasts or in 'rescued atbg1' plants and tested in protein extracts; also called AtBG1:HA; AtBG1::HA; not shown: virus HA (hemagglutinin) tag
Consider B1, for which, in series [1], the “fold increase of the co-precipitated amount upon 10% PEG 8000 (12 hours) against untreated protoplasts” value was about 3 fold. Besides, in the series with Q9SE50, the “ABA-GE hydrolyzing activity (ABA content by ELISA) of high against low molecular weight forms of AtBG1 after gel filtration and anti-HA immunoprecipitation” value is reported as “High molecular weight forms exhibited 4-fold higher AtBG1 activity”.
